# Source: patent US20190091326A1
# Columns and labels:
# [1] = target: MN V1/V2 scaffold, wildtype, gD-tagged, produced in normal 293 HEK cells (herpes simplex virus 1; HIV-1 isolate MN) (UniProt Q69091); experiment: ELISA; table row MN V1/V2 wt, column 293
# [2] = target: MN V1/V2 scaffold, engineered, gD-tagged, produced in normal 293 HEK cells (herpes simplex virus 1; HIV-1 isolate MN); experiment: ELISA; table row MN V1/V2.eng1*, column 293
# [3] = target: MN V1/V2 scaffold, engineered, gD-tagged, produced in GnTI- 293 HEK cells (herpes simplex virus 1; HIV-1 isolate MN); experiment: ELISA; table row MN V1/V2.eng1*, GnTI-
# [4] = target: 108060-I169K V1/V2 scaffold, gD-tagged, produced in normal 293 HEK cells (herpes simplex virus 1; HIV-1 isolate 108060); experiment: ELISA; table row 108060 V1/V2 I169K, column 293
# [5] = target: JRFL-E168K V1/V2 scaffold, wildtype, gD-tagged, produced in normal 293 HEK cells (herpes simplex virus 1; HIV-1 isolate JRFL) (UniProt Q69091); experiment: ELISA; table row JRFL-E168K V1/V2 wt, column 293
# [6] = target: ZM233 V1/V2 scaffold, engineered, gD-tagged, produced in GnTI- 293 HEK cells (herpes simplex virus 1; HIV-1 isolate ZM233); experiment: ELISA; table row ZM233 V1/V2.eng1*, GnTI-
# [7] = target: 108060 I169K/E172V/T161M/N156I/S164G/D167G V1/V2 scaffold, gD-tagged, produced in GnTI- 293 HEK cells (herpes simplex virus 1; HIV-1 isolate 108060); experiment: ELISA; table row 108060 V1/V2.eng1*, GnTI-
# [8] = target: JRFL-E168K V1/V2 scaffold, engineered, gD-tagged, produced in normal 293 HEK cells (herpes simplex virus 1; HIV-1 isolate JRFL); experiment: ELISA; table row JRFL-E168K V1/V2.eng1*, column 293
# [9] = target: JRFL-E168K V1/V2 scaffold, engineered, gD-tagged, produced in GnTI- 293 HEK cells (herpes simplex virus 1; HIV-1 isolate JRFL); experiment: ELISA; table row JRFL-E168K V1/V2.eng1*, GnTI-
# [10] = target: ZM233 V1/V2 scaffold, wildtype, gD-tagged, produced in normal 293 HEK cells (herpes simplex virus 1; HIV-1 isolate ZM233); experiment: capture ELISA on 34.1 anti-gD; scaffold made in normal 293 cells
# [11] = target: 108060 I169K/E172V/T161M/N156I/S164G/D167G V1/V2 scaffold, gD-tagged, produced in normal 293 HEK cells (herpes simplex virus 1; HIV-1 isolate 108060); experiment: capture ELISA on 34.1 anti-gD; purified scaffold made in 293 cells
# [12] = target: A244 V1/V2 scaffold, engineered, gD-tagged, produced in normal 293 HEK cells (herpes simplex virus 1; HIV-1 isolate A244) (UniProt Q69091); experiment: as above
# [13] = target: JRFL-E168K V1/V2 scaffold, engineered, gD-tagged, produced in normal 293 HEK cells (herpes simplex virus 1; HIV-1 isolate JRFL); experiment: as above
# [14] = target: MN V1/V2 scaffold, engineered, gD-tagged, produced in normal 293 HEK cells (herpes simplex virus 1; HIV-1 isolate MN); experiment: as above
# [15] = target: ZM233 V1/V2 scaffold, engineered, gD-tagged, produced in normal 293 HEK cells (herpes simplex virus 1; HIV-1 isolate ZM233); experiment: as above
# [16] = target: 108060 I169K/E172V/T161M/N156I V1/V2 scaffold, gD-tagged, produced in GnTI- 293 HEK cells (herpes simplex virus 1; HIV-1 isolate 108060); experiment: ELISA; table row 108060 I169K/E172V/T161M/N156I, GnTI-
# [17] = target: 108060 V1/V2 scaffold, mutant, Strep-tag/6x Histidine-tag, expressed in 293F cells (HIV-1 isolate 108060); experiment: SPR (Biacore 3000), PG9 captured by anti-human Fc, scaffold flowed, 1:1 Langmuir fit
# [18] = target: A244 V1/V2 scaffold, engineered, Strep-tag/6x Histidine-tag, produced in normal 293 cells (HIV-1 isolate A244); experiment: as above
# [19] = target: MN V1/V2 scaffold, mutant, Strep-tag/6x Histidine-tag, expressed in 293F cells (HIV-1 isolate MN) (UniProt P05877); experiment: as above
# [20] = target: ZM233 V1/V2 scaffold, engineered, Strep-tag/6x Histidine-tag, expressed in normal 293 cells (HIV-1 isolate ZM233); experiment: as above
# [21] = target: A244 V1/V2 scaffold, engineered, Strep-tag/6x Histidine-tag, produced in normal 293 cells (HIV-1 isolate A244); experiment: SPR (Biacore 3000), PG9 captured on anti-human Fc, scaffold flowed, 1:1 Langmuir fit
# [22] = target: A244 V1/V2 scaffold, wildtype (unmutated), Strep-tag/6x Histidine-tag, expressed in GnTI- cells (HIV-1 isolate A244); experiment: as above
# [23] = target: ZM233 V1/V2 scaffold, engineered, Strep-tag/6x Histidine-tag, expressed in normal 293 cells (HIV-1 isolate ZM233); experiment: as above
# [24] = target: A244 V1/V2 scaffold, wildtype (unmutated), Strep-tag/6x Histidine-tag, expressed in GnTI- cells (HIV-1 isolate A244); experiment: SPR (Biacore 3000), PG9 captured by anti-human Fc at about 100 RU, scaffold flowed, 1:1 Langmuir fit
substance,measurement,setting,value
PG9 monoclonal antibody,EC50,[1],> 10 µg/mL
same,EC50,[2],0.0274 µg/mL
same,EC50,[3],0.00796 µg/mL
same,EC50,[4],> 10 µg/mL
same,EC50,[5],> 10 µg/mL
same,EC50,[6],0.0085 µg/mL
same,EC50,[7],0.00685 µg/mL
same,EC50,[8],0.0473 µg/mL
same,EC50,[9],0.013 µg/mL
same,EC50,[10],0.0771 µg/mL
same,EC50,[11],0.093 µg/mL
same,EC50,[12],0.0991 µg/mL
same,EC50,[13],0.0473 µg/mL
same,EC50,[14],0.0274 µg/mL
same,EC50,[15],0.00227 µg/mL
same,EC50,[16],0.0281 µg/mL
same,Kd,[17],74 nM
same,Kd,[18],49 nM
same,Kd,[19],118 nM
same,Kd,[20],33 nM
same,kon,[21],40000 M⁻¹ s⁻¹
same,kon,[22],53000 M⁻¹ s⁻¹
same,koff,[23],0.0023 s⁻¹
same,kon,[23],40000 M⁻¹ s⁻¹
same,Kd,[24],15 nM
